# Laboratory results from patent publication US20190161551A1 (Regeneron, published 2019).
# B1: H4H9780P (antibody, human IgG4 S228P, kappa, V domains shown)
# VH: QVQLVESGGGVVQPGRSLRLSCAASGFSFSSFGMHWVRQAPGKGLEWVSVISYDGINTYYTDSVKGRFTISRDNSKNTLYLQMNGLRAEDTALYYCVQGSIGTVFEYWGQGTLVTVSS
# VL: DIQMTQSPSSLSASVGDRVTITCRASQGISNYLAWYQQKPGKVPKLLIYAASTLQSGVPSRFGGSGSGTDFTLTISSLQPEDVATYYCQKYTSAPFTFGPGTKVDIKR
# notes: Fully human anti-human TrkB agonist antibody, human IgG4 Fc; also called H4H9780P-L1
# B2: H4H9816P2 (antibody, human IgG4 S228P, kappa, V domains shown)
# VH: EVQLVESGGGLVQPGGSLTLSCAASGFNFRDYEMIWVRQTPGKGLEWISYISNSGYTIYYADSVKGRFTISRDNARNSIYLQVNSLRAEDTAVYYCSRRTTMIRGIRAYYYYGLDVWGQGTTVTVSS
# VL: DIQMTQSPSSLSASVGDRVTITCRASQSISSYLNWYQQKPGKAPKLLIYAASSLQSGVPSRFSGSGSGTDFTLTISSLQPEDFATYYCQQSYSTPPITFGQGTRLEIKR
# notes: Fully human anti-human TrkB agonist antibody, human IgG4 Fc; also called H4H9816P-L1
# B3: H1M8037C (antibody, mouse IgG1, kappa, V domains shown)
# VH: QVQLVQSGAEVKKPGASVKVSCKASGYTFTNYDIIWVRQAPGQGLEWMGYINPYNDGTKYNEKFKGRVTMTRDTSTSTVYMELSSLRSEDTAVYYCARLLKYRRFRYYAIDYWGQGTTVTVSS
# VL: DIQMTQSPSSLSASVGDRVTITCRTSENVYSNLAWYQQKPGKAPKLLIYAASNLQSGVPSRFSGSGSGTDYTFTISSLQPEDIATYYCQHFWGSPFTFGQGTKLEIKR
# notes: captured by anti-mFc in SPR; also called Comparator; comparator anti-TrkB monoclonal antibody
# B4: H4H9814P (antibody, human IgG4 S228P, kappa, V domains shown)
# VH: EVQLVESGGGLVQPGGSLKLSCTASGFTFSGSVIHWVRQASGKGLEWIGRIRNKANSYATAYGASVTGRFTISRDDSKNTAYLQMNSLKTEDTAVYYCTFPGVVGRGGFDYWGQGTLVTVSS
# VL: DIVMTQSPDSLAVSLGEGATINCMSSQSVLFSSNNKNYLAWYQQKPGQPPKLLFYWASTRESGVPDRFGGSGSGTDFSLTINSLQTEDVAVYYCLQYYSIPWTFGQGTKVEIKR
# notes: Fully human anti-human TrkB agonist antibody, human IgG4 Fc; also called H4H9814P-L1
# B5: M2aM14179N (antibody, mouse IgG2a, kappa, V domains shown)
# VH: EVQLQQSGPELVKPGASVKISCKASGYTLTDYYMNWVKQSHGKSLEWIGDINPNNGGTSYNQKFKGKATLTVDKSSSTAYMELRSLTSEDSAVYYCARGAYYSNYFDYWGQGTTLTVSS
# VL: DIVMSQSPSSLAVSAGEKVTMSCKSSQSLLNSRTRKNYLAWYQQKPGQSPKLLIYWASTRESGVPDRFTGSGSGTDFTLTISSVQAEDLAVYYCKQSYILFTFGSGTQLEIKR
# notes: Anti-mouse TrkB antibody from hybridoma, mouse IgG2a Fc; also called surrogate anti-mouse TrkB antibody
# B6: M2aM14173N (antibody, mouse IgG2a, kappa, V domains shown)
# VH: NVSLVESGGGSVKPGGSLQLSCAASGFTFSSSAMSWIRQTPEMRLEWVATISDRGSYTYYPDSVEGRFTISRDNAKNILYLQMSHLMSEDTAMYYCARGKGEKAYYTAFFAYWGQGSLVTVSA
# VL: DIQMTQSPASLSASVGETVTITCRASENIYSYLAWYQQKPGKSPHLLVHNAETLAEGVPSRFSGSGSGPQFSLKINSLQPGDSGTYYCQHHYSSPWTFGGGTKLEIKR
# notes: as for B5
# Biological target: human TrkB expressed on HEK293/SRE-Luc/hTrkB cells (human, UniProt Q16620 32-822)
# Sequence (Q16620 32-822): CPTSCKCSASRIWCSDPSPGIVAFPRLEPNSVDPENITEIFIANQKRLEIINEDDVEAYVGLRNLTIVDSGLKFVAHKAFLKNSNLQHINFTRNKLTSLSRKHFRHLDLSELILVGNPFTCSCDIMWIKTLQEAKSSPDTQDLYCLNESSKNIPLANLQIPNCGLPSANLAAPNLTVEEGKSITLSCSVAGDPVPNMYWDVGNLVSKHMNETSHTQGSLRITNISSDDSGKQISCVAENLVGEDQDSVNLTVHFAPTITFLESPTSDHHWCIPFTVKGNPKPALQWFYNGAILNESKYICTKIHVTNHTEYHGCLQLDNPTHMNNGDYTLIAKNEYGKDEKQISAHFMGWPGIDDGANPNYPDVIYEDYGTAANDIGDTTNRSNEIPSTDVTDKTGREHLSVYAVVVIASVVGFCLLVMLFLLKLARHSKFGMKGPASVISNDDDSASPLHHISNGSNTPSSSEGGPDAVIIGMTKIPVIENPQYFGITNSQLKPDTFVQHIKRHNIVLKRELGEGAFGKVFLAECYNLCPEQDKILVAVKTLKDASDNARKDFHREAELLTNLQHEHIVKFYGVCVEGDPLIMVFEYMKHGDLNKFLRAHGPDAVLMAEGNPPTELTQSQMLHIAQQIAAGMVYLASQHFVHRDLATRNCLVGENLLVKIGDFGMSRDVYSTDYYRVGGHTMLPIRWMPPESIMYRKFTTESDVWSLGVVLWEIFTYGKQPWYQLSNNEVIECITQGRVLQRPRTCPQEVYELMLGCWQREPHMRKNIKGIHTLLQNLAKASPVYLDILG
# Experiment: cell-based or functional assay
"Activation (%), SRE-luciferase, 100 pM BDNF","Activation (%), SRE-luciferase, No BDNF","EC50 (M), SRE-luciferase, 100 pM BDNF","EC50 (M), SRE-luciferase, No BDNF",Binder
77%,88%,7.6e-11 M,8.2e-11 M,B1
78%,90%,4.5e-11 M,6.3e-11 M,B2
79%,78%,1.1e-10 M,7.6e-11 M,B3
80%,92%,4.9e-11 M,3.5e-11 M,B4

# Biological target: mouse TrkB extracellular domain fused to the transmembrane and cytoplasmic domains of human TrkB, expressed … (mouse; human, UniProt Q16620 431-822, limits assumed)
# Sequence (Q16620 other isoform, or with tags, fused parts or gaps limits assumed, form in doubt): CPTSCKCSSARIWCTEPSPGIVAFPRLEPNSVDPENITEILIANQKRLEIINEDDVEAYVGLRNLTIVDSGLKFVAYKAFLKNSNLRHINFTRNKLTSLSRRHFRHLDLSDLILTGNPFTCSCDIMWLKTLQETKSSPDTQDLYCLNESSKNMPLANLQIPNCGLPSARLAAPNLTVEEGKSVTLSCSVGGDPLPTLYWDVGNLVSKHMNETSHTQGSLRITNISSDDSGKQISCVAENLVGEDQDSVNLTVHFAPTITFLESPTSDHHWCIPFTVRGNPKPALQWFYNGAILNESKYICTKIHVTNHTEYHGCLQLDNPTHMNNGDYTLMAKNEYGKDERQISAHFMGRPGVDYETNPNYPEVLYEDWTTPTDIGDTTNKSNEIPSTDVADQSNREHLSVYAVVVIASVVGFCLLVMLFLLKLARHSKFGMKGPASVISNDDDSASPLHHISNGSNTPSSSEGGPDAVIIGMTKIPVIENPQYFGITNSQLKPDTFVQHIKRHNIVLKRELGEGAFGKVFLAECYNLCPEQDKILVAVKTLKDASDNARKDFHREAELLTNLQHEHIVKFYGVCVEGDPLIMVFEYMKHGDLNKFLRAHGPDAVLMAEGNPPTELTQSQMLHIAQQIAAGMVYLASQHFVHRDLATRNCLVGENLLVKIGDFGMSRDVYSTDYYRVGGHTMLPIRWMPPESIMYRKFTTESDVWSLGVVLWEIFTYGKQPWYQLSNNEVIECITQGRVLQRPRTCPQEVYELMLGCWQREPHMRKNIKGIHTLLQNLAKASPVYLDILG
# Experiment: cell-based or functional assay
"Activation (%), SRE-luciferase, 100 pM BDNF","Activation (%), SRE-luciferase, No BDNF","EC50 (M), SRE-luciferase, 100 pM BDNF","EC50 (M), SRE-luciferase, No BDNF",Binder
55%,0%,,,B1
58%,0%,,,B2
69%,85%,4.2e-11 M,4.3e-11 M,B3
54%,0%,,,B4

# Biological target: T1, mouse TrkB.hFc (mouse)
# T1 construct: also called mTrkB.hFc; mTrkB-hFc
# T1 sequence (chain, as listed by the source limits assumed): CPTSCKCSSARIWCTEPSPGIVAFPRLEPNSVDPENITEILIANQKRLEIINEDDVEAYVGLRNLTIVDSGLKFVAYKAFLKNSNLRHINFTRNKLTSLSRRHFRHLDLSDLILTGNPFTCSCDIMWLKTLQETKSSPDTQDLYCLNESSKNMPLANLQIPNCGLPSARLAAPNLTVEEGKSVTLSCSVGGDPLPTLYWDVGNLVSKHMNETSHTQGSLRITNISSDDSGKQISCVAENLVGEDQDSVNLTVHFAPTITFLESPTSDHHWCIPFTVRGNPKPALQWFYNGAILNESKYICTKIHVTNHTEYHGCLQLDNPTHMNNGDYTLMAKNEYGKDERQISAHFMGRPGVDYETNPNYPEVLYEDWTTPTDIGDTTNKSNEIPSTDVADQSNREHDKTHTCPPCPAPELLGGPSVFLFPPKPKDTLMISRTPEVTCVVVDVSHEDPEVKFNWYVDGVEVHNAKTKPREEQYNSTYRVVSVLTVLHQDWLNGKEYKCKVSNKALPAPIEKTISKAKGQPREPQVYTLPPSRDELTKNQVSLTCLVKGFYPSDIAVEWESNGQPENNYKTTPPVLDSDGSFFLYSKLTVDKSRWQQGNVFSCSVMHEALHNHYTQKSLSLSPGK
# Experiment: BLI Octet, captured mTrkB.hFc, 300 nM mAb (NT-4 run)
# Description: Blocking of BDNF or NT-4 from binding to TrkB by anti-human TrkB or anti-mouse TrkB antibodies was evaluated using a real-time bio-layer interferometry (BLI) based Octet HTX instrument. The entire study was performed in 10 mM HEPES pH 7.4, 300 mM NaCl, 3 mM EDTA, 1 mg/mL BSA, 0.02% NaN3 and 0.05% v/v Surfactant Tween-20 (HBS-EBT running buffer) at 25° C. All the samples were dispensed in a 384 tilted well plate and the plate was placed on the orbital shaker with the shake speed of 1000 rpm. hTrkB.mFc was captured on anti-mFc (AMC) Octet sensors while hTrkB.hFc or mTrkB.hFc were captured on anti-hFc (AHC) Octet sensors by dipping in wells containing 10 μg/mL of TrkB reagents for 2 minutes. hTrkB.mFc or hTrkB.hFc captured Octet biosensors were saturated by dipping in wells containing 300 nM of different TrkB mAbs for 4 minutes followed by dipping Octet biosensors in wells containing 20 nM of BDNF, hNT-4, or mNT-4 for 2 minutes. Binding of BDNF, hNT-4, or mNT-4 to the complex of TrkB and different TrkB mAbs was determined using Scrubber 2.0c analysis software.
row,mAb Binding (nm),Binder
1,0.41 nm,B5
2,0.413 nm,B6
3,0.4 nm,B3

# Biological target: T2, human TrkB extracellular domain expressed with a C-terminal mouse IgG2a Fc tag (human)
# T2 construct: also called hTrkB-mFc; hTrkB.mFc
# T2 sequence (chain, as listed by the source limits assumed): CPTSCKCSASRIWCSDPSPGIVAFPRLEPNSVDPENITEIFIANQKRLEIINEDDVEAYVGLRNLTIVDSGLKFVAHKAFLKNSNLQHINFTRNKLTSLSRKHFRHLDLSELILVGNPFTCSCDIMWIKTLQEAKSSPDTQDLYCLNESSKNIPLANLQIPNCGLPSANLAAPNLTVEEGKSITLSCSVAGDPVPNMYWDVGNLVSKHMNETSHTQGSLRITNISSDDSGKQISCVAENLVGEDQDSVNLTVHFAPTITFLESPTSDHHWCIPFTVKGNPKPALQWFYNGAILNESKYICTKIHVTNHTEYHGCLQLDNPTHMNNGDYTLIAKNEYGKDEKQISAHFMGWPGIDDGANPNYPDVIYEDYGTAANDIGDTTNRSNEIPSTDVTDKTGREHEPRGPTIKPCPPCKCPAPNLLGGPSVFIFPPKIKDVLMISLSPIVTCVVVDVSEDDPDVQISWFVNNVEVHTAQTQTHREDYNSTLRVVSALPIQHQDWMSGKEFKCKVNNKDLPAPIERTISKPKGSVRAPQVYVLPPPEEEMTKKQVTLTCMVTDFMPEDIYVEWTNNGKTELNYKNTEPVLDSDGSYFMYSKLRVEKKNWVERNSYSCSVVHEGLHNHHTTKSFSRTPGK
# Experiment: BLI Octet, captured hTrkB.mFc saturated with hNT-4, 300 nM mAb
# Description: (§1) Blocking of anti-human TrkB or anti-mouse TrkB antibodies from binding to TrkB by BDNF or NT-4 was evaluated using a real-time bio-layer interferometry (BLI) based Octet HTX instrument. The entire study was performed in 10 mM HEPES pH 7.4, 300 mM NaCl, 3 mM EDTA, 1 mg/mL BSA, 0.02% NaN3 and 0.05% v/v Surfactant Tween-20 (HBS-EBT running buffer) at 25° C. All the samples were dispensed in a 384 tilted well plate and the plate was placed on the orbital shaker with the shake speed of 1000 rpm. hTrkB.mFc was captured on anti-mFc (AMC) Octet sensors while hTrkB.hFc or mTrkB.hFc were captured on anti-hFc (AHC) Octet sensors by dipping in wells containing 10 μg/mL of TrkB reagents for 2 minutes. hTrkB.mFc or hTrkB.hFc captured Octet biosensors were saturated by dipping in wells containing 20 nM of BDNF, hNT-4, or mNT-4 for 2 minutes followed by dipping Octet biosensors in wells containing 300 nM of different TrkB mAbs for 4 minutes. Binding of TrkB mAbs to the complex of TrkB and BDNF, hNT-4, or mNT-4 was determined using Scrubber 2.0c analysis software.
row,antibody Binding (nm),Binder
1,0.2 nm,B1
2,0.24 nm,B2
3,0.23 nm,B4

# Biological target: T1, mouse TrkB.hFc
# Experiment: BLI Octet, captured mTrkB.hFc saturated with mNT-4, 300 nM mAb
# Description: as §1
row,antibody Binding (nm),Binder
1,0.43 nm,B5
2,0.4 nm,B6
3,0.11 nm,B3

# Biological target: T3, human TrkB extracellular domain (aa Cys32-His430) expressed with the Fc portion of human IgG1 at the … (human)
# T3 construct: also called hTrkB-hFc; hTrkB.hFc
# T3 sequence (chain, as listed by the source limits assumed): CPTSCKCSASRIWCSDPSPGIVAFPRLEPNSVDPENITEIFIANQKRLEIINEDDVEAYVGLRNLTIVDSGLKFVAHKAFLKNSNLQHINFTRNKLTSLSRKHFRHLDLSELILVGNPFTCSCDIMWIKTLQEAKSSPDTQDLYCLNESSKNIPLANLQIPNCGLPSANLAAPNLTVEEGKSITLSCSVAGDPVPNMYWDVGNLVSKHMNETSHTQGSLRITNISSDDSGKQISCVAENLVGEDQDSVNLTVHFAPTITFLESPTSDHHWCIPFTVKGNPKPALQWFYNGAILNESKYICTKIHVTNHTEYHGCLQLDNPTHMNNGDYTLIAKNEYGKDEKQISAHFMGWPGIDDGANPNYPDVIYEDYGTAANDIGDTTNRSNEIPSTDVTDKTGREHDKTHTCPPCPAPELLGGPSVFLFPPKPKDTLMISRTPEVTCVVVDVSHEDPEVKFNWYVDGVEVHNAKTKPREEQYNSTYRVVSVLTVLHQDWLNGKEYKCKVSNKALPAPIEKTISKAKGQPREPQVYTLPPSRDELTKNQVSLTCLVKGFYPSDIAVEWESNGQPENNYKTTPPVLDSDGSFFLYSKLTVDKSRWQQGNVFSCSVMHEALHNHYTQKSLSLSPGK
# Experiment: competition ELISA, 500 pM hTrkB-hFc pre-mixed with mAb, plate-coated hBDNF
# Description: (§2) Experiments were carried out using the following procedure. Human BDNF or NT-4 were separately coated at a concentration of 0.5 μg/mL or 2 μg/mL, respectively, in PBS on a 96-well microtiter plate overnight at 4° C. […] Blocking solution and dilution buffer contained 5% (w/v) solution of BSA in PBS for assay with BDNF coat, or 0.5% (w/v) solution of BSA in PBS for assay with NT-4 coat. On separate microtiter plates, a constant amount of 500 pM of hTrkB-hFc protein was added to serial dilutions of antibodies with final concentrations ranging from 1.7 pM to 100 nM, and solutions with no antibody present. (The constant concentration of hTrkB-hFc for antibody inhibition assays was selected from the approximate midway point within the linear portion of individual binding curves of hTrkB-hFc to plate-coated hBDNF or hNT-4). After one hour incubation at room temperature, antibody-protein complexes with 500 pM constant concentration of hTrkB-hFc protein were transferred to microtiter plates coated with hBDNF or hNT-4. After one hour incubation at room temperature, the wells were washed, and plate-bound hTrkB-hFc was detected with anti-human Fcγ fragment specific goat polyclonal antibodies conjugated with horseradish peroxidase (JacksonImmunoResearch). The plate was then developed using TMB substrate solution (BD Biosciences) according to manufacturer's recommendation and absorbance at 450 nm was measured on a Victor plate reader (PerkinElmer™).
# (§3) The ability of anti-TrkB antibodies to block TrkB binding to BDNF or NT-4 was assessed using two competition sandwich ELISAs. Human TrkB-hFc binding to hBDNF or hNT-4 coated on 96-well microtiter plates, in the presence of serially diluted antibodies or no antibody controls, were detected with HRP-conjugated anti-human Fcγ fragment specific goat polyclonal antibodies. IC₅₀ values were calculated and used as the potency indicator of antibody blocking hTrkB-hFc binding to hBDNF or hNT-4. In addition, the maximum blockade of 500 pM hTrkB-hFc with each antibody at the highest tested concentration was calculated and compared.
% Blockade with 100 nM antibody,IC50,Binder
93%,150 pM,B1
-56%,,B2
97%,170 pM,B3
6%,,B4

# Biological target: T3, human TrkB extracellular domain (aa …)
# Experiment: competition ELISA, 500 pM hTrkB-hFc pre-mixed with mAb, plate-coated hNT-4
# Description: as §2, §3
% Blockade with 100 nM antibody,IC50,Binder
80%,180 pM,B1
-123%,,B2
95%,45 pM,B3
38%,,B4
